B1: COVIC-333 (antibody, V domains shown)
VH: QVQLVQSGAEVKKPGSSVRVSCKASGGTFISYTFNWVRQAPGQGLEWMGRIIPIFGIVNYAQKFQGRVTIAADKSTSTAYMELSSLRSEDTAMYYCATATVDYDSGEEQSSFDPWGQGTLVTVSS
VL: EIVLTQSPGTLSLSPGERATLSCRASQSVSSSYLAWYQQKAGQTPRLLIYAASSRATGVPDRFSGSGSGTDFTLTISRLEAEDFAVYYCQQSWTFGQGTKVEIK
B2: COVIC-312 (antibody)
chain 1: QVQLVQSGAEVKKPGSSVKVSCKASGGTFGISWVRQAPGQGLEWMGRIIPILGTANHAQKFQGRVTITADKSTGTVYMELSSLRSEDTAVYYCARDGDSGSYYETLGFDYWGQGTLVTVSSGGGGSGGGGSGGGGEVQLVESGGGLVKPGGSLRLSCAASGFTFSPYSMNWVRQAPGKGLEWVSSISVSNIYTYYADSVKGRFTISRDNAKNSLYLQMNSLRAEDTAIYYCARDLKKGGIQYDAFDIWGQGTVVTVSS
chain 2: QSALTQPPSASGSPGQSVTISCTGTSSDVGGYNYVSWYQQHPGKAPKLMIYEVNKRPSGVPDRFSGSKSGNTASLTVSGLQAEDEADYYCSSYAGSNNLVFGGGTKLTVLGGGGSGGGGSGGGGEIVLTQSPATLSLSPGERATLSCRASQSVNDYLAWYQQKPGQAPRLLIYDASNRATGFPARFSGSGSGTDFTLTISSLEPEDFAVYYCQQRSNWPPTFGQGTRLEIK
B3: COVIC-93 (protein)
chain: MSSSSWLLLSLVAVTAAQSTIEEQVKTFLDKFNHEAEDLFYQCSLASWNYNTNITEENVQNMNNACDKWSAFLCEQSTLAQMYPLQEIQDLTVKLQLQALQQNGSCVLSEDKSKRLNTILNTMSTIYCTGKVCNPDNPQECLLLEPGLNEIMANSLDYNERLWAWESWRSEVGKQLRPLYEEYVVLKNEMARANHYEDYGDYWRGDYEVNGVDGYDYSRGQLIEDVEHTFEEIKPLYEHLHAYVRAKLMNAYPSYISPTGPLPAHLLGDMWGRFWTNLYSLTVPFGQKPNIDVTDAMVDQAWDAQRIFKEAEKFFVSVGLPNMTQGFWENSMLTDPGNGQKVCCYPTAWDLGKGDFRILMCTKVTMDDFLTAHHEMGHIQYDMAYAAQPFLLRNGANEGFHEAVGEIMSLSAATPKHLKSIGLLSPDFQEDNETEINFLLKQALTIVGTLPFTYMLEKWRWMVFKGEIPKDQWMKKWWEMKREIVGVVEPVPHDETYMDPASLFHVSNDYSFIRYYTRTLYQFQFQEALCQAAKHEGPLHKCDISNSTEAGQKLFNMLRLGKSEPWTLALENVVGAKNMNVRPLLNYFEPLFTWLKDQNKNSFVGWSTDWSPYADQSIKVRISLKSALGDKAYEWNDNEMYLFRSSVAYAMRQYFLKVKNQMILFGEEDVRVANLKPRISFNFFVTAPKNVSDITPRTEVEKAIRMSRSRINDCFRLNDNSLEFLGIQPTLGPPNQPPVECPPCPAPPVAGPSVFLFPPKPKDTLMISRTPEVTCVVVDVSHEDPEVQFNWYVDGVEVHNAKTKPREEQFNSTFRVVSVLTVVHQDWLNGKEYKCKVSNKGLPAPIEKTISKTKGQPREPQVYTLPPSREEMTKNQVSLTCLVKGFYPSDISVEWESNGQPENNYKTTPPMLDSDGSFFLYSKLTVDKSRWQQGNVFSCSVLHEALHSHYTQKSLSLSPGK
B4: COVIC-306 (antibody, V domains shown)
VH: QVQLVESGGGLVKPGGSLRLSCAASGFTVGSNYMSWVRQAPGKGLEWVSVIYSGGSTYYADSVKGRFTISRDNSKNTLYLQMNSLRAEDTAVYYCARGSSGAWYFDLWGRGTLVTVSS
VL: EIVMTQSPSSLSASVGDSVTITCQASQDISNYLNWYQQKPGKAPKLLIYDASNLETGVPSRFSGGGSGTDFTLTITSLQPEDIATYYCQQYDNFPPTFGPGTKVDIKR
B5: COVIC-131 (antibody, V domains shown)
VH: EVQLVESGGGVVQPGRSLRLSCAASAFTFSSYDMHWVRQAPGKGLEWVAVISYDGSNKYYADSVKGRFTISRDNSKNTLYLQMNSLRAEDTAVYYCAKDGGKLWVYYFDYWGQGTTVTVSS
VL: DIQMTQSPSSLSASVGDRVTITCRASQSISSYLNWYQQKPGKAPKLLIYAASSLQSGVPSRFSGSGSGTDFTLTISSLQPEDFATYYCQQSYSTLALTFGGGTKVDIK
B6: COVIC-367 (antibody, V domains shown)
VH: EVQLVESGGGLVQPGRSLRLSCAASGFTFDDYAMHWVRQAPGKGLEWVSGVSWNSGTIGYADSVKGRFIISRDNAKNSLYLQMRSLRAEDTALYYCAKDVSVYRFREQSYGMDVWGQGTTVTVLS
VL: QSALTQSASVSGSPGQSITISCTGTSSDIGGYNFVSWYQQHPGKAPKLMIYEVTTRPSGVSNRFSGSKSGNTASLTISGLQAEDEADYYCSSYTSSSLVVFGGGTKLALLG
B7: COVIC-64 (antibody)
chain: QVQLQESGGGLVQAGGSLRLSCAASGRTFSEYAMGWFRQAPGKEREFVATISWSGGSTYYTDSVKGRFTISRDNAKNTVYLQMNSLKPDDTAVYYCAAAGLGTVVSEWDYDYDYWGQGTQVTVSSGGSGGSQVQLQESGGGLVQAGGSLRLSCVASGSIFSINAMDWYRQAPGKQRELVAGITSGGSTNYGDFVKGRFTISRDNAKNTVYLQMDSLKPEDTAVYYCAAEVGGWGPPRPDYWGHGTQVTVSSGGGGSGGGGSKKKPLDGEYFTLQIRGRERFEMFRELNEALELKDAQAGKEPG
B8: COVIC-22 (antibody, V domains shown)
VH: EVQLLESGGGLVQPGGSLRLSCAASGFTFSRHAMNWVRQAPGKGLEWVSGISGSGDETYYADSVKGRFTISRDNSKNTLYLQMNSLRAEDTAVYYCARDLPASYYDSSGYYWHNGMDVWGQGTLVTVSS
B9: COVIC-149 (antibody, V domains shown)
VH: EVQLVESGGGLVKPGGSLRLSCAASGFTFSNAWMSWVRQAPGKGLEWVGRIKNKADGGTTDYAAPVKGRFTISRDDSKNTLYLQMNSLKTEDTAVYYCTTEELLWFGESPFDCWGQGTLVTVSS
VL: DIQLTQSPSFLSASVGDRVTITCWASQGINSYLAWYQQKPGKAPKLLIYAASTLQSGVPSRFSGSGSGTEFTLTISSLQPEDFTTYYCQQFNDYPRTFGPGTKVEIKR
B10: COVIC-160 (antibody, V domains shown)
VH: EVQLVESGGGLIQPGGSLRLSCAASGVTVSSNYMSWVRQAPGKGLEWVSVIYSGGSTFYADSVKGRFTISRDNSKNTLYLQMNSLRAEDTAVYYCARDLSYYGMDVWGQGTTVTVSS
VL: DIQLTQSPSFLSASVGDRVTITCWASQGISSYLAWYQQKPGKAPKLLIYAASTLQSGVPSKFSGSGSGTEFTLTISSLQPEDFATYYCQQLNSYPCSFGQGTKLEIKR
B11: COVIC-153 (antibody, V domains shown)
VH: EVQLVESGGGLIQPGGSLRLSCAASGLTVSSNYMSWVRQAPGKGLEWVSIIYSGGSTYYADSVKGRFTISRDNSKNTLYLQMNSLRAEDTAVYYCARLGGYYYYGMDVWGQGTTVTVSS
VL: DIQMTQSPSSLSASVGERVTITCQASQDIRNYLNWYQKKPGKAPKLLIYDSSNLETGVPSRFSGSGSGTDFTFTISSLQPEDIATYYCQQYDNLPITFGQGTRLEIKR
B12: COVIC-167 (antibody, V domains shown)
VH: EVQLVESGGGLIQPGGSLRLSCAASGLTVSSNYMSWVRQAPGKGLEWVSIIYSGGSTYYADSVKGRFTISRDNSKNTLYLQMNSLRAEDTAVYYCARLGGYYYYGMDVWGQGTTVTVSS
VL: DIQMTQSPSSLSASVGERVTITCQASQDIRNYLNWYQKKPGKAPKLLIYDSSNLETGVPSRFSGGGSGTDFTFTISSLQPEDIATYYCQQYDNLPITFGQGTRLEIKR
B13: COVIC-142 (antibody, V domains shown)
VH: EVQLVESGGGLIQPGGSLRLSCAASGFTVSSNYMSWVRQAPGKGLEWVSVIYSGGSTYYADSVKGRFTISRDNSKNTLYLQMNSLRAEDTAVYYCARHITMVRGVIIYLKEWGQGTLVTVSS
VL: DIVMTQSPSSLSASVGDRVTITCQASQDISNYLNWYQQKPGKAPKLLIYDASNLETGVPSRFSGSGSGTDFTFTISSLQPEDIATYYCQQCDNLPITFGQGTRLEIK
B14: COVIC-121 (antibody)
chain: QVQLQESGGGLVQAGGSLRLSCAASGRTFSEYAMGWFRQAPGKEREFVATISWSGGSTYYTDSVKGRFTISRDNAKNTVYLQMNSLKPDDTAVYYCAAAGLGTVVSEWDYDYDYWGQGTQVTVSSGGSGGSQVQLQESGGGLVQAGGSLRLSCAASGRTFSEYAMGWFRQAPGKEREFVATISWSGGSTYYTDSVKGRFTISRDNAKNTVYLQMNSLKPDDTAVYYCAAAGLGTVVSEWDYDYDYWGQGTQVTVSSGGGGSGGGGSKKKPLDGEYFTLQIRGRERFEMFRELNEALELKDAQAGKEPGGGGGSGGGGSQVQLQESGGGLVQAGGSLRLSCAASGRTFSEYAMGWFRQAPGKEREFVATISWSGGSTYYTDSVKGRFTISRDNAKNTVYLQMNSLKPDDTAVYYCAAAGLGTVVSEWDYDYDYWGQGTQVTVSS
B15: COVIC-129 (antibody)
chain 1: QVQLQESGGGLVQAGGSLRLSCAASGRTFSEYAMGWFRQAPGKEREFVATISWSGGSTYYTDSVKGRFTISRDNAKNTVYLQMNSLKPDDTAVYYCAAAGLGTVVSEWDYDYDYWGQGTQVTVSSGGSGGSQVQLQESGGGLVQAGGSLRLSCAASGRTFSEYAMGWFRQAPGKEREFVATISWSGGSTYYTDSVKGRFTISRDNAKNTVYLQMNSLKPDDTAVYYCAAAGLGTVVSEWDYDYDYWGQGTQVTVSSGGGGSGGGGSASTKGPSVFPLAPSSKSTSGGTAALGCLVKDYFPEPVTVSWNSGALTSGVHTFPAVLQSSGLYSLSSVVTVPSSSLGTQTYICNVNHKPSNTKVDKKVEPKSCDKTHTCPPCPAPELLGGKKKPLDGEYFTLQIRGRERFEMFRELNEALELKDAQAGKEPG
chain 2: QVQLQESGGGLVQAGGSLRLSCAASGRTFSEYAMGWFRQAPGKEREFVATISWSGGSTYYTDSVKGRFTISRDNAKNTVYLQMNSLKPDDTAVYYCAAAGLGTVVSEWDYDYDYWGQGTQVTVSSGGSGGSQVQLQESGGGLVQAGGSLRLSCAASGRTFSEYAMGWFRQAPGKEREFVATISWSGGSTYYTDSVKGRFTISRDNAKNTVYLQMNSLKPDDTAVYYCAAAGLGTVVSEWDYDYDYWGQGTQVTVSSGGGGSGGGGSKRTVAAPSVFIFPPSDEQLKSGTASVVCLLNNFYPREAKVQWKVDNALQSGNSQESVTEQDSKDSTYSLSSTLTLSKADYEKHKVYACEVTHQGLSSPVTKSFNRGEC
B16: COVIC-309 (antibody, V domains shown)
VH: EVQLVESGGGLVQPGRSLRLSCAASGFTFDDYAMHWVRQAPGKGLEWVSGISWNSGSIGYADSVKGRFTISRDNAKNSLHLQMNSLRAEDTALYYCANLLTPPRRYSGYDLREDYFEYWGQGTLVTVSS
VL: SSELTQDPAVSVALGQTVRITCQGDSLRSYYASWYQQKPGQAPVLVIYDRNNRPSGIPDRFSGSSSGNTASLTITGAQAEDEADYYCHSRDSSGNPLHVVFGGGTKLTVL

The assay addresses SARS-CoV-2 spike RBD (Wuhan-Hu-1) (Severe acute respiratory syndrome …, UniProt P0DTC2). Kind of assay: SPR. For orientation: SPR reads the build-up and loss of mass on a sensor chip optically.
B1 returned a dissociation constant (Kd) of 0.0111 nM.

Molecule B2 displayed a Kd of 0.347 nM. This Kd is about 31-fold higher than that of the molecule before.

For B3, the equilibrium dissociation constant (Kd) worked out at 0.431 nM.

In turn, B4 gave a dissociation constant (Kd) of 26.3 nM. Against the preceding molecule, the Kd is about 61-fold higher.

In turn, B5 displayed a dissociation constant Kd of 2.05 nM. This Kd lies about 13-fold lower than the previous one.

Regarding B6, binding was characterised by a dissociation constant (Kd) of 0.0301 nM.

In turn, B7 showed a Kd of 169 nM.

For the molecule B8, binding was characterised by a dissociation constant (Kd) of 0.414 nM.

As for B9, binding was characterised by a dissociation constant (Kd) of 22.3 nM.

Turning to B10, binding was characterised by a dissociation constant (Kd) of 14.7 nM.

B11 displayed a Kd of 2.06 nM.

The molecule B12 showed a Kd of 1.87 nM.

In turn, B13 gave a Kd of 16.5 nM. This Kd lies about 8.8-fold higher than the previous one.

As for B14, binding was put at a Kd of 195 nM.

Consider B15, for which the Kd was determined as 135 nM.

For the molecule B16, binding was put at a Kd of 104 nM.

As a reminder, the Kd is a measure of binding affinity in units of concentration. Higher therefore signals weaker binding.
